Experimental data: patent US20250262210A1 (TRUSTEES OF COLUMBIA UNIVERSITY IN THE CITY OF NEW YORK, published 2025)

Experiments:
Assay in all cases: IP/MS, LZTR1 wild type-FLAG, U87
RAPH1 = molecular target: T1, RAPH1 (human, UniProt Q70E73 1-1250, limits assumed)
T1 sequence (looked up): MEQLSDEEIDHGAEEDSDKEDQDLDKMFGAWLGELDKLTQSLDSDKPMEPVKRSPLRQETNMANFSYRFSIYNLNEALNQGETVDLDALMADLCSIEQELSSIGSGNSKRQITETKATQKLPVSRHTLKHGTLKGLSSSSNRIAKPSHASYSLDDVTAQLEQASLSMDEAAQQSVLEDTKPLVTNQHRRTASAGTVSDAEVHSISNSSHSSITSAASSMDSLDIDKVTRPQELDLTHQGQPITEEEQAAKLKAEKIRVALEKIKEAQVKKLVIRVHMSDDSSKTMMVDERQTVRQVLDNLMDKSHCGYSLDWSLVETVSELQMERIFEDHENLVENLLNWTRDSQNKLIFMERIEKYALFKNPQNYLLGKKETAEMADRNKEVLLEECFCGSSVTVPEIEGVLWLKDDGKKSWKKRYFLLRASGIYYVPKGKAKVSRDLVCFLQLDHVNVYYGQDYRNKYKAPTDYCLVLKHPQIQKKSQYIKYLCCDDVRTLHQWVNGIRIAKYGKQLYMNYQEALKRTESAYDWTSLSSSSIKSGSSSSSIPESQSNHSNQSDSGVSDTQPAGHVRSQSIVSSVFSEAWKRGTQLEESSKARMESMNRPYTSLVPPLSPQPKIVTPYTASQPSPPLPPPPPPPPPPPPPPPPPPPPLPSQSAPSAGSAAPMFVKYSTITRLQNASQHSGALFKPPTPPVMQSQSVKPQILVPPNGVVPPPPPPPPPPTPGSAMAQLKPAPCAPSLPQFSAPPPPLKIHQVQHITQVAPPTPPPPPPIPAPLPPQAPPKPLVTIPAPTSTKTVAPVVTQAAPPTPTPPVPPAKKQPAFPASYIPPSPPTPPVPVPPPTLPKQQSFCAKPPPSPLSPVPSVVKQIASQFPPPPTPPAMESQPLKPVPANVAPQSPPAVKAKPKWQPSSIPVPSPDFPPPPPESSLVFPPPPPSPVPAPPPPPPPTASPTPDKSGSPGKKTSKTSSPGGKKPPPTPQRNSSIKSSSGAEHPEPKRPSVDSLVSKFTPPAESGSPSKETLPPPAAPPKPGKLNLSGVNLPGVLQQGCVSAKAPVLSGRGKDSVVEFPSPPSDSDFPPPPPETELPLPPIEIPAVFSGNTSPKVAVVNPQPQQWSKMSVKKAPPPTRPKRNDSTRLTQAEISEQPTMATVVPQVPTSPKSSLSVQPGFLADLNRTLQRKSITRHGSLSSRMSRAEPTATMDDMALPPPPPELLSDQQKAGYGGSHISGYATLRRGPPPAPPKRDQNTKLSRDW
Summary of the method: (§1)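 Gel slices were reduced with 5 mM DTT, alkylated with 11 mM IAA and digested overnight at 37° C. with trypsin. Peptides were analysed on an Orbitrap Fusion Tribrid by LC-MS/MS.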

KIAA1217 = KIAA1217 (human, UniProt Q5T5P2 1-1943, limits assumed)
Chain of KIAA1217 (Q5T5P2 whole entry): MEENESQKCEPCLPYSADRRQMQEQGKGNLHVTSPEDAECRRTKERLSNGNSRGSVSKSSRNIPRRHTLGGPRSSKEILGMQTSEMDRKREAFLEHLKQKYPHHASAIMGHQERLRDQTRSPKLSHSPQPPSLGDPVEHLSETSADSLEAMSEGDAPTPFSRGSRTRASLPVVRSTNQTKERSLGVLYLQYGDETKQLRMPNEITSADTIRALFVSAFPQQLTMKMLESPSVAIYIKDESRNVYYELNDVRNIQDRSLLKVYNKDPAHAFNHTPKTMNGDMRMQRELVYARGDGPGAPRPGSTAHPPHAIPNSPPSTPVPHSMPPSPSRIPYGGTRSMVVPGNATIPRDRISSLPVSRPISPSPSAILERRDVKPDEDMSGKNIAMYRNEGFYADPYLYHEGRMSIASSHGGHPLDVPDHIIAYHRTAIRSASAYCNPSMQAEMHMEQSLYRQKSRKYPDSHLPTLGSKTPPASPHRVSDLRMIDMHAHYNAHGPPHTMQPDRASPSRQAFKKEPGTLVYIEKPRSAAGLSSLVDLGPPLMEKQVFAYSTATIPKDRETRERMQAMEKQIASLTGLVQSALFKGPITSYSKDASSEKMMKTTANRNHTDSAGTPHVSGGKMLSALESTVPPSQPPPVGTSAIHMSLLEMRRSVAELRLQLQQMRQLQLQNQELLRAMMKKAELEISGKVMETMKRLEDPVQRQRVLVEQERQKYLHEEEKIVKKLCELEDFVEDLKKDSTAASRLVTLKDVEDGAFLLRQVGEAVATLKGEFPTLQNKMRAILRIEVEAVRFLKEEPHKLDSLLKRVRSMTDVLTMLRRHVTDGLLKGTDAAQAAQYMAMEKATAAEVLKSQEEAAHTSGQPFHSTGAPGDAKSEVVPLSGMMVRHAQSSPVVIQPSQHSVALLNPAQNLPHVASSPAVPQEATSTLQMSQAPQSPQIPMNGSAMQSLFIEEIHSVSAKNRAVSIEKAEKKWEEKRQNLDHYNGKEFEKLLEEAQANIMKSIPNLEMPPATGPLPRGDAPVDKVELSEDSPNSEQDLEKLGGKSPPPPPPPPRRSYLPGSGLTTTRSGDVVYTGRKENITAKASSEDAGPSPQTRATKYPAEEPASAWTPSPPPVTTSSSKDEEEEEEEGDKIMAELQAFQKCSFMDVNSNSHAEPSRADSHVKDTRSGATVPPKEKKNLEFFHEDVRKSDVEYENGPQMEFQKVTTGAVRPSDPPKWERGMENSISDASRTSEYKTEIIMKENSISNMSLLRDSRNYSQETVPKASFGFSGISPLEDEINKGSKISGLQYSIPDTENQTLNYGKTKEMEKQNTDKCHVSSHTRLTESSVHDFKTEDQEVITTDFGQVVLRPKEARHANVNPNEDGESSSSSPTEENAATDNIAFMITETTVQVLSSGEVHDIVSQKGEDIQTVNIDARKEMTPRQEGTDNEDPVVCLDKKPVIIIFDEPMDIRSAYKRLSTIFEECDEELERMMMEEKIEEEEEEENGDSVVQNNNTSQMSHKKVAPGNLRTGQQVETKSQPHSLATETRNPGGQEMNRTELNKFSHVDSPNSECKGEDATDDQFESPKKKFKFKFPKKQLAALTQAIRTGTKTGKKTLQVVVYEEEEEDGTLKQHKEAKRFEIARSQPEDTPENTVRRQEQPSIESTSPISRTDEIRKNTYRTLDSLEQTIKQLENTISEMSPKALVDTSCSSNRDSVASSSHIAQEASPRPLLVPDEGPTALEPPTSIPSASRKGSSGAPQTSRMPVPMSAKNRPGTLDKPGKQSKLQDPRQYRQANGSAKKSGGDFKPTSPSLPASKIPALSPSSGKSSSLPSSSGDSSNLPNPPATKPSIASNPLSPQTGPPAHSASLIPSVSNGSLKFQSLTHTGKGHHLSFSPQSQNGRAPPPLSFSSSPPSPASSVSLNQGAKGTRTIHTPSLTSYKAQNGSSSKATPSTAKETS
Summary of the method: as §1

HECTD3 = molecular target: T2, HECTD3 (human, UniProt Q5T447 2-861, limits assumed)
T2 sequence (looked up): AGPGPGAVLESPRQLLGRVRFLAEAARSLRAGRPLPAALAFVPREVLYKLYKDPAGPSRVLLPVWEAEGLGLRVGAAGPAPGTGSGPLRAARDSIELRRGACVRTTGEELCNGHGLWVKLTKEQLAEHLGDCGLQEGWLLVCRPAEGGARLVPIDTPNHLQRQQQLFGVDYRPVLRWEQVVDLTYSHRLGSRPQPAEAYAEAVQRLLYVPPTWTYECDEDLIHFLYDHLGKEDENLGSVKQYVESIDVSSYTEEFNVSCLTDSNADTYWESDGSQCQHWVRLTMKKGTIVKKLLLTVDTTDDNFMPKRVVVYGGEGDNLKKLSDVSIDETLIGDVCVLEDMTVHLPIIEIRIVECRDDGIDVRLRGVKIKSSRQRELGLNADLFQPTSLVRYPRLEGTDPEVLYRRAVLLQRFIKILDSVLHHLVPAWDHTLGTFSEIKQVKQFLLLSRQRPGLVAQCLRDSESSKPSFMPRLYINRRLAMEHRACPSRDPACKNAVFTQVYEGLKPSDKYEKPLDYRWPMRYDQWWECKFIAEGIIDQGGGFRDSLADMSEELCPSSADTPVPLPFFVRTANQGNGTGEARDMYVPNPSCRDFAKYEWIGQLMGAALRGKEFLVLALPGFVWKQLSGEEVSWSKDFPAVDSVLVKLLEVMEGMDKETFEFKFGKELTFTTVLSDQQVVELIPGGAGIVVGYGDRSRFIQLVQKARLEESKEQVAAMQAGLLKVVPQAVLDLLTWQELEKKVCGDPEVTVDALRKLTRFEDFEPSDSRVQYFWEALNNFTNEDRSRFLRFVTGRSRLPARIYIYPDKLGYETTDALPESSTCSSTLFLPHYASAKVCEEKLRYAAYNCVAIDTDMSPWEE
Summary of the method: as §1

Measured: binding result

B1: LZTR1-FLAG (other, human, UniProt Q8N653 1-840, looked up)
chain: MAGPGSTGGQIGAAALAGGARSKVAPSVDFDHSCSDSVEYLTLNFGPFETVHRWRRLPPCDEFVGARRSKHTVVAYKDAIYVFGGDNGKTMLNDLLRFDVKDCSWCRAFTTGTPPAPRYHHSAVVYGSSMFVFGGYTGDIYSNSNLKNKNDLFEYKFATGQWTEWKIEGRLPVARSAHGATVYSDKLWIFAGYDGNARLNDMWTIGLQDRELTCWEEVAQSGEIPPSCCNFPVAVCRDKMFVFSGQSGAKITNNLFQFEFKDKTWTRIPTEHLLRGSPPPPQRRYGHTMVAFDRHLYVFGGAADNTLPNELHCYDVDFQTWEVVQPSSDSEVGGAEVPERACASEEVPTLTYEERVGFKKSRDVFGLDFGTTSAKQPTQPASELPSGRLFHAAAVISDAMYIFGGTVDNNIRSGEMYRFQFSCYPKCTLHEDYGRLWESRQFCDVEFVLGEKEECVQGHVAIVTARSRWLRRKITQARERLAQKLEQEAAPVPREAPGVAAGGARPPLLHVAIREAEARPFEVLMQFLYTDKIKYPRKGHVEDVLLIMDVYKLALSFQLCRLEQLCRQYIEASVDLQNVLVVCESAARLQLSQLKEHCLNFVVKESHFNQVIMMKEFERLSSPLIVEIVRRKQQPPPRTPLDQPVDIGTSLIQDMKAYLEGAGAEFCDITLLLDGHPRPAHKAILAARSSYFEAMFRSFMPEDGQVNISIGEMVPSRQAFESMLRYIYYGEVNMPPEDSLYLFAAPYYYGFYNNRLQAYCKQNLEMNVTVQNVLQILEAADKTQALDMKRHCLHIIVHQFTKVSKLPTLRSLSQQLLLDIIDSLASHISDKQCAELGADI
notes: Expressed in HEK 293T, HeLa or U87 cells; used as cell lysate; also called LZTR1 wild type-FLAG; LZTR1 WT; not shown: FLAG tag at the C-terminus
binds: RAPH1 | KIAA1217 | HECTD3
